MFI data for one substance are collected here from patent US20220220200A1.

For assay [1], the target named is CD19 on the cell surface (native CD19 antigen) (human) (UniProt P15391). The assay is described as follows: flow cytometry, phage clone on Raji cells (CD19-positive). (A flow cytometer gives signals particle by particle.)
Assay [2] has the same target. Kind of assay: flow cytometry, phage clone on JVM-2 cells (CD19-positive).
The target is the same in assay [3]. Kind of assay: flow cytometry, phage clone on K562-CD19 cells (CD19-positive).

CD19 on the cell surface (native CD19 antigen) (human), sequence (P15391 20-556): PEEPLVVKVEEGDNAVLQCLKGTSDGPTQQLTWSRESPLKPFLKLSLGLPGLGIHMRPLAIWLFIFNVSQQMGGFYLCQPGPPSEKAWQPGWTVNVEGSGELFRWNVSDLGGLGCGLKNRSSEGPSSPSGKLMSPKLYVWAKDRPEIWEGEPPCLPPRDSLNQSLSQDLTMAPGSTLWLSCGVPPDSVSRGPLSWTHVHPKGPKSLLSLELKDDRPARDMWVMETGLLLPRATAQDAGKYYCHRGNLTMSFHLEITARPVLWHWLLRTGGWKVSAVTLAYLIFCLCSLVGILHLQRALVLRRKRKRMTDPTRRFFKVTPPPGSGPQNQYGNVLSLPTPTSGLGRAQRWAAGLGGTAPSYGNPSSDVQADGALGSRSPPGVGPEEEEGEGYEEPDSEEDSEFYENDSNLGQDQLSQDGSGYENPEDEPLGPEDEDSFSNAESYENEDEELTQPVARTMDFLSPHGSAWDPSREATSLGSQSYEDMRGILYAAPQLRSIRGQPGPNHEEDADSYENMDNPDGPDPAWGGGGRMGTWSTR

Turning to “FMC-63 (humanized mouse anti-human CD19 phage antibody clone) (scFv)”, the MFI in assay [1] was 55.8; in assay [2], 22.4; in assay [3] it was 38.1.
